Test results published in the supplement of paper PMC9732359.
± gives the uncertainty stated by the source.

Assay: protein stability index of a GFP-peptide fusion (yeast GPS) (PSI 1-4); higher = more stable; sorted into four equal gates, so the index is relative within each strain
Method in brief: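 The protein stability index of a peptide was calculated by multiplying its read frequency in each gate by that gate's number and adding the products. The peptides were tiled 17-residue stretches of yeast proteins, fused downstream of GFP on a Cherry-expressing plasmid and carried in yeast as a pooled library. Mid-log cultures in leucine-free medium were sorted into four equal gates by GFP/Cherry ratio, and each gate's plasmids were PCR-amplified and Illumina-sequenced.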

Sequence | protein stability index (doa10∆) | protein stability index (pdr5∆) | protein stability index (san1∆) | protein stability index (ubr1∆)
MPPKEDWEKYKAPLEDD [RPT1] | 3.21 ± 0.12 | 3.29 ± 0.21 | 3.38 ± 0.069 | 3.27 ± 0.19
FDTDWNPHQDLQAQDRA [SNF2] | 3.07 ± 0.068 | 3.16 ± 0.056 | 2.94 ± 0.037 | 3.35 ± 0.05
DYPDDSGWTPFHIACSV [NAS6] | 3.37 ± 0.11 | 2.28 ± 0.099 | 2.48 ± 0.12 | 2.27 ± 0.29
DEITEDMFEMSDEEENN [SSN2] | 3.16 ± 0.099 | 3.39 ± 0.11 | 3.25 ± 0.08 | 3.2 ± 0.075
YYLGQYYGCLENDHERG [CSN12] | 2.68 ± 0.098 | 2.85 ± 0.093 | 2.84 ± 0.06 | 3.06 ± 0.052
ERRLQTQVYKLGLAKSV [RPS9A] | 1.29 ± 0.067 | 1.23 ± 0.056 | 1.2 ± 0.18 | 1.23 ± 0.064
KNIKIIMATNRLDILDP [RPT6] | 2.91 ± 0.14 | 2.55 ± 0.079 | 2.41 ± 0.068 | 3.3 ± 0.058
DAHKAEQEDIIEKTESV [SWI3] | 3.19 ± 0.086 | 3.32 ± 0.1 | 3.38 ± 0.046 | 3.21 ± 0.081
SLIEDFVDGIANSKKST [SRB7] | 3.29 ± 0.14 | 3.35 ± 0.092 | 3.03 ± 0.062 | 3.04 ± 0.062
KDQDSQIELSCNERVPL [SRP72] | 3.08 ± 0.08 | 3.12 ± 0.097 | 2.83 ± 0.056 | 3.01 ± 0.059
TVLQKNSLLLDSTPEEV [YML103C/NUP188] | 2 ± 0.052 | 2.28 ± 0.063 | 1.38 ± 0.079 | 1.42 ± 0.049
TAPSSERRVLLSAPLSK [RPL26B] | 1.86 ± 0.041 | 2.4 ± 0.044 | 2.66 ± 0.062 | 2.08 ± 0.044
QQTEKLNPQVADINKNF [RPN2] | 1.91 ± 0.066 | 2.42 ± 0.058 | 2.44 ± 0.07 | 2.49 ± 0.055
SSIDKIEDRDFLVRYAC [SIR3] | 2.9 ± 0.17 | – | – | 3.02 ± 0.21
GINQILGNEKNQASTSK [CDC53] | 3.08 ± 0.15 | 3.25 ± 0.14 | 3.11 ± 0.092 | 3.2 ± 0.073
HPIMETIVNDSNYDWLF [RPN9] | 2.42 ± 0.058 | 2.34 ± 0.057 | 2.16 ± 0.085 | 2.66 ± 0.052
TVDGRLYQLFKTCIQGI [YJL039C/NUP192] | 2.86 ± 0.16 | 2.98 ± 0.23 | 3.03 ± 0.11 | –
NEYYPMCEQALSALFTI [YCS4] | 2.2 ± 0.062 | 2.65 ± 0.088 | 2.47 ± 0.077 | 2.39 ± 0.045
RIGRIEDVTPVPSDSTR [RPS14A] | 2.85 ± 0.082 | 3.15 ± 0.065 | 3.26 ± 0.053 | 3.16 ± 0.052
WHGVHRNPARLMETLRT [RPB2] | 1.35 ± 0.073 | 1.3 ± 0.066 | 1.55 ± 0.18 | 1.2 ± 0.045
FWSLHSSTYYNLDYLFE [NUT1] | 2.44 ± 0.053 | 2.05 ± 0.037 | 2 ± 0.063 | 1.95 ± 0.029
ISGDISDMQHIERLLKD [PRE4] | 2.99 ± 0.14 | 3.1 ± 0.11 | 3.13 ± 0.14 | 2.99 ± 0.1
LGYNFDGSAIEDDDIRS [SNF5] | 3.39 ± 0.086 | 3.26 ± 0.072 | 3.35 ± 0.068 | 3.35 ± 0.05
VGSLVVKSSMGPAFRLY [RPL1A] | 3.07 ± 0.059 | 2.95 ± 0.055 | 3.14 ± 0.051 | 2.73 ± 0.055
SKTDNIEDPNLSSNITF [YMR153W/NUP53] | 2.84 ± 0.084 | 2.81 ± 0.08 | 3 ± 0.064 | 3.27 ± 0.073
AIKYRPTSVKLLKTTVP [POP3] | 2.23 ± 0.037 | 2.3 ± 0.039 | 2.31 ± 0.057 | 2.14 ± 0.033
FNYSGKDMLYSGITGEC [RET1] | 2.48 ± 0.075 | 2.46 ± 0.075 | 2.19 ± 0.12 | 2.61 ± 0.06

Sequence | protein stability index (doa10∆) | protein stability index (pdr5∆) | protein stability index (san1∆) | protein stability index (ubr1∆)
AVGAHSDLLKVLKSKKL [RPL4A] | 3.13 ± 0.14 | 3.14 ± 0.13 | 2.61 ± 0.16 | 2.82 ± 0.062
ILATNSLRILAKLSERS [YJL039C/NUP192] | 2.39 ± 0.062 | 2.67 ± 0.062 | 2.49 ± 0.085 | 2.67 ± 0.053
TSTNPNGLGTSHINTNV [ARP7] | 3.14 ± 0.068 | 3.28 ± 0.061 | 2.96 ± 0.061 | 3.33 ± 0.057
PTIEEDLTRVYKAISAQ [FAS2] | 2.22 ± 0.051 | 2.21 ± 0.041 | 2.75 ± 0.056 | 2.32 ± 0.042
PEVVELCQKSPVMADLN [FAS2] | 2.63 ± 0.074 | 2.69 ± 0.078 | 2.48 ± 0.11 | 2.73 ± 0.085
FLRKATAFNKTRGPFHF [RPL16B] | 3 ± 0.042 | 3.12 ± 0.045 | 2.78 ± 0.043 | 3.08 ± 0.033
AHKGQIVLIKGISSAYI [SNU114] | 1.56 ± 0.07 | 1.48 ± 0.064 | 1.89 ± 0.069 | 1.86 ± 0.053
GIRYIRLKQVFNRALDQ [NNF1] | 1.79 ± 0.035 | 1.95 ± 0.027 | 2.04 ± 0.036 | 2.12 ± 0.025
GYYLSLGSGSLAAMAVL [PUP1] | – | 1.98 ± 0.29 | – | –
DKLPQFVDENTFQRVCQ [RPN1] | 3.04 ± 0.082 | 3.28 ± 0.12 | 3.15 ± 0.062 | 3.3 ± 0.078
ITIQDLLFPKSTIVNLA [DPB4] | 2.45 ± 0.066 | 2.71 ± 0.11 | 2.51 ± 0.069 | 2.59 ± 0.083
TERHIQVGDGLEILIVT [PRE7] | 2.05 ± 0.067 | 1.97 ± 0.07 | 2.63 ± 0.11 | 3.12 ± 0.065
TDYARAKNRILASKIKQ [RRI1] | 1.93 ± 0.097 | 2.07 ± 0.072 | 1.94 ± 0.091 | 1.91 ± 0.063
YFPEGYNNKVGVAASQG [SIR2] | 1.64 ± 0.055 | 2.03 ± 0.063 | 2.04 ± 0.16 | 1.81 ± 0.062
ANTPVLRKSELEYYAML [RPL30] | 2.57 ± 0.096 | 2.99 ± 0.093 | 2.23 ± 0.095 | 2.81 ± 0.076
SKIRKIHIQETQEFSKN [SIR3] | 3.45 ± 0.11 | 3.08 ± 0.15 | – | 3.36 ± 0.084
SETADETLENNIVSVLT [RPN11] | 2.73 ± 0.11 | 2.94 ± 0.076 | 2.75 ± 0.11 | 2.78 ± 0.097
HVRKVKLLKQPKFDVGA [RPS1A] | 2.21 ± 0.062 | 2.5 ± 0.085 | 2.28 ± 0.073 | 2.2 ± 0.067
LRRTTQRVFDETEQEYS [YDL116W/NUP84] | 3.21 ± 0.064 | 3.03 ± 0.046 | 3.2 ± 0.061 | 3.19 ± 0.043
LDIEKEAPAGNIDTITD [MCD1] | 2.84 ± 0.081 | 3.03 ± 0.066 | 3.07 ± 0.086 | 3.08 ± 0.052
VKRLLFTIRGFKQKLNE [MTW1] | 3.04 ± 0.058 | 2.76 ± 0.048 | 2.86 ± 0.044 | 3.14 ± 0.043
VQIGAEIILDFLQDKVQ [CSI1] | 3.03 ± 0.085 | 3.07 ± 0.066 | 2.88 ± 0.061 | 3.06 ± 0.047
NEIESRQLTSLGSKKEL [SNU114] | 3.17 ± 0.075 | 3.28 ± 0.078 | 3.31 ± 0.092 | 3.37 ± 0.058
RKIEAETRNGKVKNQGA [YCS4] | 2.89 ± 0.14 | 3.43 ± 0.12 | 3.12 ± 0.12 | 3.22 ± 0.13
NSYWLIILLGVLEDCRH [ITC1] | 1.42 ± 0.061 | 1.53 ± 0.048 | 2.44 ± 0.083 | 2.36 ± 0.057
KRRFDPSSSDSNGPRAA [RRP6] | 3.25 ± 0.073 | 3.31 ± 0.089 | 3.21 ± 0.048 | 3.33 ± 0.052
GWKYEDVVAKLEAKRKV [RPL16A] | 2.78 ± 0.082 | 1.88 ± 0.063 | 1.93 ± 0.13 | 1.88 ± 0.046
